# Experimental data from article PMC10909783.
# What was measured:
# Test in all cases: BLI
# [1] = target: T1, MDA5 WT (dL2) del646-663 (Mus musculus) (UniProt Q8R5F7); conditions: 3'-biotin, BLI and EMSA: 20 mM Hepes pH 7.4, 0.15 M KCl, 1 mM TCEP, EMSA 15 min at 4 C with 1 uM protein and 100 ng nucleic acid, BLI with 0.1 or 1 uM protein …
# T1 sequence: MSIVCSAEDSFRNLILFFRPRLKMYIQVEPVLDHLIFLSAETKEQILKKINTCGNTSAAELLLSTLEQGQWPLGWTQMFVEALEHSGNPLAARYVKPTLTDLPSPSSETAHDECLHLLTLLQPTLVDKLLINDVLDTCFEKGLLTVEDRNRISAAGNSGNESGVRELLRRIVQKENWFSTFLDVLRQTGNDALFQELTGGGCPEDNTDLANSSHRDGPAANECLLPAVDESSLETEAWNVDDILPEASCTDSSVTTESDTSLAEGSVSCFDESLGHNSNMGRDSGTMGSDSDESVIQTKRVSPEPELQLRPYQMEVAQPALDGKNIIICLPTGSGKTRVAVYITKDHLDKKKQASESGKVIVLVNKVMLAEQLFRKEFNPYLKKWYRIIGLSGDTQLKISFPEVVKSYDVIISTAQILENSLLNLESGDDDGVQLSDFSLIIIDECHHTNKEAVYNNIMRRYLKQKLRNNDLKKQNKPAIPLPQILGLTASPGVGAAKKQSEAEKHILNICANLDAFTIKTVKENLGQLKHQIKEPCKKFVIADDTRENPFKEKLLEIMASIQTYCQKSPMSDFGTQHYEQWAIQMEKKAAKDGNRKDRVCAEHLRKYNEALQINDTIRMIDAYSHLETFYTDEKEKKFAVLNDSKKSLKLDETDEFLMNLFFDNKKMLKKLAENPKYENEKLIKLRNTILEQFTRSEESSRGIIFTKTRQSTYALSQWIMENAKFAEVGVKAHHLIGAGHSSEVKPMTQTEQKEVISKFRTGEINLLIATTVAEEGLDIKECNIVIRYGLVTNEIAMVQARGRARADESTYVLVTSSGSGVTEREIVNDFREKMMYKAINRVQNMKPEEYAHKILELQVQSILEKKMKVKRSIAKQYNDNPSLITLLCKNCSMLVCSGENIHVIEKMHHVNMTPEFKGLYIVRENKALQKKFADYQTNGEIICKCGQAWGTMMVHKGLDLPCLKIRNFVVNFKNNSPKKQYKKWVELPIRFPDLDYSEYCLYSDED
# LGP2 K30G (Mus musculus) = conditions: no ATP stated; 3'-biotin; BLI and EMSA: 20 mM Hepes pH 7.4, 0.15 M KCl, 1 mM TCEP; EMSA 15 min at 4 C with 1 uM protein and 100 ng nucleic acid; BLI with 0.1 or 1 uM protein …
# LGP2 WT (Mus musculus) = conditions: 3'-biotin, BLI and EMSA: 20 mM Hepes pH 7.4, 0.15 M KCl, 1 mM TCEP, EMSA 15 min at 4 C with 1 uM protein and 100 ng nucleic acid, BLI with 0.1 or 1 uM protein …
# [2] = target: MDA5 WT (dL2);LGP2 WT del646-663 (Mus musculus;Mus musculus) (UniProt Q8R5F7); conditions: MDA5-LGP2 mixture, apparent Kd; 3'-biotin; BLI and EMSA: 20 mM Hepes pH 7.4, 0.15 M KCl, 1 mM TCEP; EMSA 15 min at 4 C with 1 uM protein and 100 ng nucleic …; BLI with 0.1 or 1 uM protein, temperature
# [3] = target: MDA5 WT (dL2);LGP2 K30G del646-663 (Mus musculus;Mus musculus) (UniProt Q8R5F7); conditions: MDA5-LGP2 K30G mixture; 3'-biotin; BLI and EMSA: 20 mM Hepes pH 7.4, 0.15 M KCl, 1 mM TCEP; EMSA 15 min at 4 C with 1 uM protein and 100 ng nucleic acid; BLI with 0.1 or 1 uM protein …
Substance,Kd ([1]; no ATP stated) [nM],Kd (LGP2 K30G (Mus musculus)) [nM],Kd (LGP2 WT (Mus musculus)) [nM],Kd (LGP2 WT (Mus musculus); no ATP stated) [nM],Kd [2] [nM],Kd [1] [nM],Kd [3] [nM]
"1-kb dsRNA, 3'-biotin",1300,1300,48,70,520,,
"300-bp dsRNA, 3'-biotin",,,,,,1310,
"40-nt ssRNA, 3'-biotin",,,,,,2600,1840
